Source: article PMC2712960

Experiments:
[1] = target: b6f complex with cytochrome b6 C35V (C. reinhardtii (endogenous)) (UniProt P23577); experiment: native gel or EMSA
[2] = target: b6f complex (monomer of 140 kD) (C. reinhardtii (endogenous)) (UniProt P23577); experiment: native gel or EMSA

Row | Substance | stoichiometry N [1] | stoichiometry N [2]
1 | b6f complex with cytochrome b6 C35V (from UniProt P23577 32-317; Q00471 1-215; P23230 1-160) | 2 | –
2 | b6f complex (monomer of 140 kD) (from UniProt P23577 32-317; Q00471 1-215; P23230 1-160) | – | 2
